# Assay results: PMC5037430, “High throughput cell-based assay for identification of glycolate oxidase inhibitors as a potential treatment for Primary Hyperoxaluria Type 1” (Scientific Reports, 2016)
# B1: glycolate oxidase (GO); hydroxyacid oxidase 1 (HAO1) (Homo sapiens) (protein)
# chain: MLPRLICINDYEQHAKSVLPKSIYDYYRSGANDEETLADNIAAFSRWKLYPRMLRNVAETDLSTSVLGQRVSMPICVGATAMQRMAHVDGELATVRACQSLGTGMMLSSWATSSIEEVAEAGPEALRWLQLYIYKDREVTKKLVRQAEKMGYKAIFVTVDTPYLGNRLDDVRNRFKLPPQLRMKNFETSTLSFSPEENFGDDSGLAAYVAKAIDPSISWEDIKWLRRLTSLPIVAKGILRGDDAREAVKHGLNGILVSNHGARQLDGVPATIDVLPEIVEAVEGKVEVFLDGGVRKGTDVLKALALGAKAVFVGRPIVWGLAFQGEKGVQDVLEILKEEFRLAMALSGCQNVKVIDKTLVRKNPLAVSKI
# Substrate: O=C(O)CO
# Assay: purified protein
# Conditions: FMN
protein,measurement,value
B1,Km,74.5 µM
